The text below walks through data of the array DNA melting data of Ke et al..

The first data set in a line: melting temperature; melt of duplexes. The following applies: sodium 0.0675 M; strand 1 µM.
Usually Tm stands for the temperature at the midpoint of the melting transition. Consider “CGACGTGCGCCATGTGCTG+CAGCACATCCTGCACGTCG ((((((((...((((((((+))))))))...))))))))”, for which the Tm was 47.3 °C. Still for that read-out and setting: to “CGACGTGCTTCATGTGCTG+CAGCACATAATGCACGTCG ((((((((.(.((((((((+)))))))).).))))))))” belongs 50.4 °C. Regarding “CGACGTGCATGATGTGCTG+CAGCACATAGTGCACGTCG (((((((((..((((((((+))))))))..)))))))))”, the Tm was found to be 49.6 °C.

Regarding “CGACGTGCCTTATGTGCTG+CAGCACATTAAGCACGTCG ((((((((.(.((((((((+)))))))).).))))))))”, the Tm was 49.8 °C. Turning to “CGACGTGCCTCATGTGCTG+CAGCACATACGGCACGTCG (((((((((..((((((((+))))))))..)))))))))”, the Tm amounted to 52.4 °C. For the substance “CGACGTGCAAAATGTGCTG+CAGCACATAGGGCACGTCG ((((((((...((((((((+))))))))...))))))))”, the Tm was determined as 48.7 °C. As for “CGACGTGCGACATGTGCTG+CAGCACATCTGGCACGTCG ((((((((.(.((((((((+)))))))).).))))))))”, the Tm was found to be 49 °C. For the substance “CGACGTGCAAAATGTGCTG+CAGCACATATTGCACGTCG ((((((((((.((((((((+)))))))).))))))))))”, the Tm is 54.7 °C. “CGACGTGCTCGATGTGCTG+CAGCACATTGGGCACGTCG ((((((((.(.((((((((+)))))))).).))))))))”: the Tm turned out to be 55.7 °C. “CGACGTGCGCTATGTGCTG+CAGCACATCGGGCACGTCG ((((((((.(.((((((((+)))))))).).))))))))”: the Tm was 52 °C. For the substance “CGACGTGCTGCATGTGCTG+CAGCACATGCAGCACGTCG (((((((((((((((((((+)))))))))))))))))))”, the Tm is 67.5 °C.

Turning to “CGACGTGCGAAATGTGCTG+CAGCACATCGTGCACGTCG ((((((((...((((((((+))))))))...))))))))”, the melting temperature (Tm) was found to be 44.7 °C.

Regarding “CGACGTGCCACATGTGCTG+CAGCACATCCCGCACGTCG ((((((((...((((((((+))))))))...))))))))”, the Tm is 46.3 °C.

As for “CGACGTGCGCGATGTGCTG+CAGCACATCGAGCACGTCG ((((((((.((((((((((+)))))))))).))))))))”, the Tm is 63.1 °C. Still for that read-out and setting: to “CGACGTGCTCCATGTGCTG+CAGCACATCGTGCACGTCG ((((((((.(.((((((((+)))))))).).))))))))” belongs 44.7 °C; to “CGACGTGCGGTATGTGCTG+CAGCACATGGGGCACGTCG ((((((((...((((((((+))))))))...))))))))”, 51.7 °C; to “CGACGTGCTGTATGTGCTG+CAGCACATGACGCACGTCG ((((((((...((((((((+))))))))...))))))))”, 47.9 °C. Regarding “CGACGTGCGAGATGTGCTG+CAGCACATTGGGCACGTCG ((((((((...((((((((+))))))))...))))))))”, the Tm was 51.9 °C.

Another data set is described as follows: melting temperature; UV melt of duplexes. The following applies: sodium 0.07 M; strand 2 µM.
Consider “TTATGTATTAAGTTATATAGTAGTAGTAGT+ACTACTACTACTATATAACTTAATACATAA ((((((((((((((((((((((((((((((+))))))))))))))))))))))))))))))”, for which the Tm was found to be 50.7 °C. In the case of “TACTTCCAGTGCTCAGCGTA+TACGCTGAGCACTGGAAGTA ((((((((((((((((((((+))))))))))))))))))))”, the Tm is 60.3 °C. The same measure, in the same setting: the result for “TCCACACGGTAGTAAAATTAGGCTT+AAGCCTAATTTTACTACCGTGTGGA (((((((((((((((((((((((((+)))))))))))))))))))))))))” reads 59.3 °C.

The same data set, now with this note: sodium 0.1 M; strand 4 µM.
As for “CTCGTACCTTCCGGTCC+GGACCGGAAGGTACGAG (((((((((((((((((+)))))))))))))))))”, the Tm was 60.6 °C.

Still in this data set, the particulars now being: sodium 0.12 M; strand 2 µM.
With “TTATGTATTAAGTTATATAGTAGTAGTAGT+ACTACTACTACTATATAACTTAATACATAA ((((((((((((((((((((((((((((((+))))))))))))))))))))))))))))))”, the Tm came to 55 °C. On to “TACTTCCAGTGCTCAGCGTA+TACGCTGAGCACTGGAAGTA ((((((((((((((((((((+))))))))))))))))))))”, for which the Tm stood at 64.4 °C. Take “TCCACACGGTAGTAAAATTAGGCTT+AAGCCTAATTTTACTACCGTGTGGA (((((((((((((((((((((((((+)))))))))))))))))))))))))”: the Tm was 63.1 °C.

Still in this data set, the particulars now being: sodium 0.12 M; strand 5 µM.
Consider “AAATATAGCTATATTT+AAATATAGCTATATTT ((((((((((((((((+))))))))))))))))”, for which the Tm worked out at 40.4 °C.

The data set is the same for the next values; noted with them: sodium 0.12 M; strand 7 µM.
Take “AAATATAAGAATTCTTATATTT+AAATATAAGAATTCTTATATTT ((((((((((((((((((((((+))))))))))))))))))))))”: the Tm is 48.9 °C.

The data set is the same for the next values; noted with them: sodium 0.22 M; strand 2 µM.
Consider “TTATGTATTAAGTTATATAGTAGTAGTAGT+ACTACTACTACTATATAACTTAATACATAA ((((((((((((((((((((((((((((((+))))))))))))))))))))))))))))))”, for which the Tm worked out at 59.3 °C. Still for that read-out and setting: the result for “TACTTCCAGTGCTCAGCGTA+TACGCTGAGCACTGGAAGTA ((((((((((((((((((((+))))))))))))))))))))” reads 67.7 °C; that for “TCCACACGGTAGTAAAATTAGGCTT+AAGCCTAATTTTACTACCGTGTGGA (((((((((((((((((((((((((+)))))))))))))))))))))))))”, 67.3 °C.

Still in this data set, the particulars now being: sodium 0.62 M; strand 2 µM.
For the substance “TTATGTATTAAGTTATATAGTAGTAGTAGT+ACTACTACTACTATATAACTTAATACATAA ((((((((((((((((((((((((((((((+))))))))))))))))))))))))))))))”, the Tm came to 65.1 °C. On the same count and under the same terms, the result for “TACTTCCAGTGCTCAGCGTA+TACGCTGAGCACTGGAAGTA ((((((((((((((((((((+))))))))))))))))))))” reads 71.6 °C; that for “TCCACACGGTAGTAAAATTAGGCTT+AAGCCTAATTTTACTACCGTGTGGA (((((((((((((((((((((((((+)))))))))))))))))))))))))”, 71.8 °C.

Still in this data set, the particulars now being: sodium 1.02 M; strand 2 µM.
In the case of “TTATGTATTAAGTTATATAGTAGTAGTAGT+ACTACTACTACTATATAACTTAATACATAA ((((((((((((((((((((((((((((((+))))))))))))))))))))))))))))))”, the Tm was 66.6 °C. With “TACTTCCAGTGCTCAGCGTA+TACGCTGAGCACTGGAAGTA ((((((((((((((((((((+))))))))))))))))))))”, the Tm was 73.6 °C.

In the case of “TCCACACGGTAGTAAAATTAGGCTT+AAGCCTAATTTTACTACCGTGTGGA (((((((((((((((((((((((((+)))))))))))))))))))))))))”, the Tm came to 73.8 °C.
